We go through four molecules from PMC4525180 (Nature communications, 2015).

To fix the notation:
B1: Rad51 (natural protein, S. cerevisiae, UniProt P25454 1-400, looked up)
chain: MSQVQEQHISESQLQYGNGSLMSTVPADLSQSVVDGNGNGSSEDIEATNGSGDGGGLQEQAEAQGEMEDEAYDEAALGSFVPIEKLQVNGITMADVKKLRESGLHTAEAVAYAPRKDLLEIKGISEAKADKLLNEAARLVPMGFVTAADFHMRRSELICLTTGSKNLDTLLGGGVETGSITELFGEFRTGKSQLCHTLAVTCQIPLDIGGGEGKCLYIDTEGTFRPVRLVSIAQRFGLDPDDALNNVAYARAYNADHQLRLLDAAAQMMSESRFSLIVVDSVMALYRTDFSGRGELSARQMHLAKFMRALQRLADQFGVAVVVTNQVVAQVDGGMAFNPDPKKPIGGNIMAHSSTTRLGFKKGKGCQRLCKVVDSPCLPEAECVFAIYEDGVGDPREEDE
B2: Csm2–Psy3 heterodimer (complex, S. cerevisiae)
chain 1: MEYEDLELITIWPSPTKNKLCQFIKQNLSKEHVVTQLFFIDATSSFPLSQFQKLVPPTLPENVRIYENIRINTCLDLEELSAITVKLLQILSMNKINAQRGTEDAVTEPLKIILYINGLEVMFRNSQFKSSPQRSHELLRDTLLKLRVMGNDENENASIRTLLEFPKEQLLDYYLKKNNNTRTSSVRSKRRRIKNGDSLAEYIWKYYADSLFE
chain 2: MEVLKNIRIYPLSNFITSTKNYINLPNELRNLISEEQESKLGFLHIIESDFKPSVALQKLVNCTTGDEKILIIDIVSIWSQQKQRQHGAIYMNSLSCINITGLIVFLELLYDSPMDALRRCQVDNFNFQLRGIVIDNLSFLNFESDKNYDVINLSKFEKLFKILRKLREFLGCWIITKSFPTDFYNGIENTLVDKWSIKRKSGVTLYPTKLPDSYMKGMDLIIYREVVDGRPQYRRIAALEE
B3: Shu complex (Csm2–Psy3–Shu1–Shu2) (complex, S. cerevisiae)
chain 1: B2 chain 1
chain 2: B2 chain 2
chain 3: MQFEERLQQLVESDWSLDQSSPNVLVIVLGDTARKYVELGGLKEHVTTNTVAGHVASRERVSVVFLGRVKYLYMYLTRMQAQANGPQYSNVLVYGLWDLTATQDGPQQLRLLSLVLRQCLSLPSKVEFYPEPPSSSVPARLLRFWDHIIR
chain 4: MSKDVIEYSKLFAKLVNTNDDTKLDDTIASFLYYMFPRELFIRAISLLESSDMFIYILDRVHNKEGNEHTSLIDVLVDEFYKGSSNSLLEYRLIVKDTNDGAPPILVDIAHWFCSCEEFCKYFHEALEKTDEKEELHDVLINEVDDHLQFSDDRFAQLDPHSLSKQWYFKFDKVCCSHLLAFSILLRSSINVLKFFTVNSNKVFVIAIDNIDEWLNLHINIVE
B4: Rad55–Rad57 complex (complex, S. cerevisiae)
chain 1: MSLGIPLSQLIVESPKPLSSGITGLDEILNLGFQARSIYEIFGPPGIGKTNFGIQLVCNSLEGIQQSEINDDKILWIETFQEMPINILRERFQKFKIVEENVKRVRITKFGQLLYFFQNLFKLSQSVRYKLVIIDGFSQLVCDHLCTLSKRGGGMIDKTIHELKCRHLILIFTVMTKYTHSTGSTIIVLNDCMNTAFQSNEFESLEEYYEILDDGSNFFVNSNNERRKNNVHILKSALVANIAMGSKDSTWEVFLRDRIGLFRDWNEQVDETVFVKSKRVKASSSQSNEGCTTIKEMRINKRNFENLRIAIVFNLHGEDRKREGRNLKRSRSSDDRNYIVKFDFDKATGQLRDIIDLKPDTANIASFPTLSTSSSSCSQVFNNIDSNDNPLPNAEGKEEIIYDSEG
chain 2: MPRALSIKFDNTYMDLYDELPESKLLYDEEFSYLLDAVRQNGVCVVDFLTLTPKELARLIQRSINEVFRFQQLLVHEYNEKYLEICEKNSISPDNGPECFTTADVAMDELLGGGIFTHGITEIFGESSTGKSQLLMQLALSVQLSEPAGGLGGKCVYITTEGDLPTQRLESMLSSRPAYEKLGITQSNIFTVSCNDLINQEHIINVQLPILLERSKGSIKLVIIDSISHHLRVELQNKSFRESQENKNYLDRMAEKLQILAHDYSLSVVVANQVGDKPLANSPVAHRTYVTDYDYQLGWLVGWKNSTILYRQMNSLLGASSNNDEILSDDEDYMLIERVMSTVNDRNYDFFSKKKPPIIENKTVERNSSSPISRQSKKRKFDYRVPNLGLTWSNHVSTRILLQKSFKASTIIQRGEAHLYKGGDSASFWQVKRTMKVVYSTFAKPGQIAYQITKRGIETA

Details in all cases: both partners purified
For assay [1], the target named is B4. In words: pull-down; pull-down with Rad51; set-up only in Supplementary Fig. 2b; also with Csm2–Psy3 added to Rad55–Rad57 and Rad51.
The target in assay [2] is B4. Put plainly: pull-down; His-tagged Rad55–Rad57 (0.5 μg) with Csm2–Psy3 (0.5 μg), captured on Ni-NTA resin through (His)6 on Rad55; buffer C (20 mM MOPS pH 7.2, 150 mM KCl, 1 mM ATP, 2 mM MgCl2, 15 mM imidazole), 4 °C, washes with 200 mM KCl; SDS-PAGE, Coomassie.
The target in assay [3] is B4. In words: pull-down; Shu complex with Rad55–Rad57; set-up only in Supplementary Fig. 2a.
Assay [4] concerns the target GST-tagged Rad52 (S. cerevisiae, UniProt P06778 1-471). In words: pull-down; GST–Rad52 with one partner, captured on glutathione resin; buffer with 100 mM KCl, no imidazole, 4 °C; anti-FLAG immunoblot (FLAG on Rad57 and Psy3). For orientation: Immunoblotting shows a protein as a band on a membrane.

GST-tagged Rad52, sequence (P06778 whole entry): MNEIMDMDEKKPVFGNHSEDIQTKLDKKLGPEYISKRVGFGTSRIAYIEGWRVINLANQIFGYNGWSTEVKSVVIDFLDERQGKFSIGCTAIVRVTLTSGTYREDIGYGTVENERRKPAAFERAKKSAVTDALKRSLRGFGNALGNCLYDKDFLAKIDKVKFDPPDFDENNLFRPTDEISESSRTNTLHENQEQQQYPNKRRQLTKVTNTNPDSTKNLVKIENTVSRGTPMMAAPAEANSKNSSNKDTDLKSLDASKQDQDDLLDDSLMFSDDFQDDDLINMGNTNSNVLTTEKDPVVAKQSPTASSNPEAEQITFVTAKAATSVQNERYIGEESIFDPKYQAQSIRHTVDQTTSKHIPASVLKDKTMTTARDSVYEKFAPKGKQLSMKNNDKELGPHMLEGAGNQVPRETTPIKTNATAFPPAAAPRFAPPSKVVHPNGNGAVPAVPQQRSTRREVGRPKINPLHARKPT

Consider B1, for which the binding result in assay [1] was “binds”.

Take B2: in assay [2], the binding result is given as “binds”.

Consider B3, for which, in assay [3], the binding result was “binds”.

As for B4, the binding result in assay [4] is listed as “binds”.
